Here are results for four molecules from PMC11790958 (The EMBO Journal, 2024).

No end group written: not given here. *: point of attachment. 5FAM = O=C1OC2(c3ccc(O)cc3Oc3cc(O)ccc32)c2ccc(C(=O)*)cc21; 5‑FAM = 5-carboxyfluorescein label

The target in one test is T1, yeast condensin pentamer (S. cerevisiae, UniProt P38989 1-1170; Q12267 1-1418; P38170 1-754; Q06156 1-1176; Q06680 1-1035).
T1 construct: Smc2, S. cerevisiae condensin subunit; Smc4, S. cerevisiae condensin subunit; Brn1, S. cerevisiae condensin kleisin subunit; Ycs4, S. cerevisiae condensin HAWK subunit; Ycg1, S. cerevisiae condensin HAWK subunit; also called ScCondensin Pentamer; pentameric yeast condensin; source: purified as described previously (Martínez-García et al, 2022; Lee et al, 2020); copies: + + + +
Put plainly: fluorescence polarisation; 100 nM 5-FAM labelled peptide, protein or complex titrated; 20 mM HEPES pH 8, 150 mM KCl, 2.5 mM MgCl, 5% glycerol, 1 mM DTT; room temperature, 15 min. The note with it: both partners purified.

For test [1], the target named is T2, human condensin I pentamer, wild type (human, UniProt O95347 1-1197; Q9NTJ3 1-1288; Q15003 1-741; Q15021 1-1401; Q9BPX3 1-1015).
T2 construct: SMC2, human condensin I subunit; SMC4, human condensin I subunit; NCAPH, human condensin I kleisin subunit; NCAPD2, human condensin I HAWK subunit; NCAPG, human condensin I HAWK subunit; The complex carries a strep tag; also called CI; CIWT; source: Sf9 insect cells (baculovirus), co-expressed, purified (StrepTrap, heparin, SEC); copies: + + + +
Described as above. The note with it: both partners purified.

B1: 5-FAM Sgo1(503-523) peptide (peptide)
peptide: TRTKKLFKNAIVNNLSDENST
modifications: also: 5-FAM label, end not given here
notes: Sgo1, yeast shugoshin, residues 503-523, SLiM; also called Sgo peptide; source: synthetic peptide; bought: Genscript
In turn, B1 gave a Kd with yeast condensin pentamer of 4 ± 0.3 µM.

B2: 5-FAM Lrs4(317-337) peptide (peptide)
peptide: {5‑FAM}-NKKRKLTKQRIATLPNSDEEL
notes: also called 5-FAM Lrs4(317-339); Lrs4 peptide; source: synthetic peptide; bought: Genscript
Molecule B2 came in with a Kd with yeast condensin pentamer of 12.9 ± 2.5 µM.

B3: 5-FAM NCAPD2-C(1376-1398) peptide (peptide)
peptide: 5FAM-SAEMTEDETPKKTTPILRASARR
notes: NCAPD2, human condensin I HAWK subunit, residues 1376-1398 (C-terminal SLiM); also called 5-FAM-NCAPD2(1376-1398); F-NCAPD2-C(1376-1398); source: synthetic peptide; bought: Genscript
As to B3, the binding result in test [1] is “binds”.

B4: 5-FAM-KIF4A WT(1206-1228) peptide (peptide)
peptide: 5FAM-PGKKKKRALASNTSFFSGCSPIE
notes: KIF4A, chromokinesin, residues 1206-1228 (C-terminal tail SLiM); also called 5-FAM-KIF4A(1206-1228); 5-FAM labelled KIF4A; source: synthetic peptide; bought: Genscript
The molecule B4 displayed a Kd in test [1] of 17.7 µM.
